Source: patent US20220267420A1 (Memorial Sloan Kettering, published 2022)

Experiments:
[1] = molecular target: T1, G10: … on HLA-A2 of T2 cells (human, UniProt A*02:01); assay: flow cytometry; T2 cells pulsed with the peptide at 50 ug/ml, stained with Foxp3-#32 bispecific mAb
T1 construct: on T2 cells; A10G; also called G10 analog of the Foxp3-TLI peptide/HLA-A*02:01
Excerpt: (§1) TLI peptide was substituted with alanine at position 1, 2, 3, 4, 5, 7, 8 and 9, or with glycine at position 10. Position 6 was already alanine and it was left intact.

[2] = molecular target: T2, A3: … on HLA-A2 of T2 cells (human, UniProt A*02:01); assay: as above
T2 construct: on T2 cells; I3A; also called A3 analog of the Foxp3-TLI peptide/HLA-A*02:01
Excerpt: as §1

[3] = molecular target: T3, A2: … on HLA-A2 of T2 cells (human, UniProt A*02:01); assay: as above
T3 construct: on T2 cells; L2A; also called A2 analog of the Foxp3-TLI peptide/HLA-A*02:01
Excerpt: as §1

[4] = molecular target: T4, A4: … on HLA-A2 of T2 cells (human, UniProt A*02:01); assay: as above
T4 construct: on T2 cells; R4A; also called A4 analog of the Foxp3-TLI peptide/HLA-A*02:01
Excerpt: as §1

[5] = molecular target: T5, A7: … on HLA-A2 of T2 cells (human, UniProt A*02:01); assay: as above
T5 construct: on T2 cells; I7A; also called A7 analog of the Foxp3-TLI peptide/HLA-A*02:01
Excerpt: as §1

[6] = molecular target: T6, A5: … on HLA-A2 of T2 cells (human, UniProt A*02:01); assay: as above
T6 construct: on T2 cells; W5A; also called A5 analog of the Foxp3-TLI peptide/HLA-A*02:01
Excerpt: as §1

[7] = molecular target: T7, A1: … on HLA-A2 of T2 cells (human, UniProt A*02:01); assay: as above
T7 construct: on T2 cells; T1A; also called A1 analog of the Foxp3-TLI peptide/HLA-A*02:01
Excerpt: as §1

[8] = molecular target: T8, A8: … on HLA-A2 of T2 cells (human, UniProt A*02:01); assay: as above
T8 construct: on T2 cells; L8A; also called A8 analog of the Foxp3-TLI peptide/HLA-A*02:01
Excerpt: as §1

[9] = molecular target: T9, A9: … on HLA-A2 of T2 cells (human, UniProt A*02:01); assay: as above
T9 construct: on T2 cells; E9A; also called A9 analog of the Foxp3-TLI peptide/HLA-A*02:01
Excerpt: as §1

[10] = molecular target: T10, HLA-A*02:01 on T2 cells without added peptide (human); assay: flow cytometry; T2 cells without peptide, stained with Foxp3-#32 bispecific mAb
T10 construct: Also serves as the HLA partner in the T2 stabilization assay of the TLI analog peptides; also called T2 cells alone; HLA-A*02 molecule
Excerpt: as §1

[11] = molecular target: T11, CD3 on the Jurkat T cell line (human, UniProt P07766 23-207); assay: flow cytometry on Jurkat cells (HLA-A2 negative)
T11 construct: whole, on cells; The result sentence says only 'CD3'; the epsilon chain comes from the description of the construct; also called human CD3 epsilon
T11 sequence (P07766 23-207): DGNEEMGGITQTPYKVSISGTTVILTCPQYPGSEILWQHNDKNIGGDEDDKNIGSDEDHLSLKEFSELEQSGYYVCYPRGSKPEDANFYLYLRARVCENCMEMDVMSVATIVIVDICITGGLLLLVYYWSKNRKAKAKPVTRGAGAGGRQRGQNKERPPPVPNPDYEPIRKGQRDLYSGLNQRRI
Description: Binding of the indicated bispecific mAb constructs to Foxp3+/HLA-A2+T lymphoma cell line MAC-2A and control cell line Jurkat. Since the bispecific mAb constructs were myc-tagged, the binding was tested by staining the cells with the bispecific mAbs, followed by a secondary mAb, mouse anti-myc conjugated to FITC. […] Binding strength is shown by median fluorescent intensity.

| Median:PE-A [1] | Median:PE-A [2] | Median:PE-A [3] | Median:PE-A [4] | Median:PE-A [5] | Median:PE-A [6] | Median:PE-A [7] | Median:PE-A [8] | Median:PE-A [9] | binding result [10] | binding result [11] | Binder |
| --- | --- | --- | --- | --- | --- | --- | --- | --- | --- | --- | --- |
| 214 | 5510 | 603 | 4450 | 3470 | 861 | 5620 | 122 | 117 | no binding | – | Foxp3-#32 bispecific mAb (bispecific antibody, Bispecific T cell engager format, made in CHO cells and purified through its His tag; also called FoxP3-#32 BsAb; Foxp3-bispecific mAb) QSVLTQPPSVSVAPGKTARITCGGNNIGSKSVHWYQQKPGQAPVLVIYYDSDRPSGIPERFSGSNSGNTATLTISRVEAGDEADYYCQVWDSSSDHYVFGTGTKVTVLGSRGGGGSGGGGSGGGGSLEMAEVQLVESGGGVVQPGRSLRLSCAASGFTFNNHAMHWVRQAPGKGLEWVAVISFDGDDKFYADSVKGRFTISRDNSRNTLFLQMNNLRPEDTAVYYCSRDPYHFASGSYSYFDYWGQGTLVTVSSTSGGGGSDVQLVQSGAEVKKPGASVKVSCKASGYTFTRYTMHWVRQAPGQGLEWIGYINPSRGYTNYADSVKGRFTITTDKSTSTAYMELSSLRSEDTATYYCARYYDDHYCLDYWGQGTTVTVSSGEGTSTGSGGSGGSGGADDIVLTQSPATLSLSPGERATLSCRASQSVSYMNWYQQKPGKAPKRWIYDTSKVASGVPARFSGSGSGTDYSLTINSLEAEDAATYYCQQWSSNPLTFGGGTKVEIKHHHHHH |
| – | – | – | – | – | – | – | – | – | – | no binding (tested: 1 ug/ml) | Foxp3-#32 mAb, mouse IgG1 form (antibody, V domains shown, APC-conjugated in some stainings; the letters do not carry the dye., Mouse IgG1 form of the TCR-mimic antibody, used for flow cytometry and APC-conjugated in some stainings; Where the text says only 'Foxp3-#32 mAb' in the Treg and cell line stainings, the methods and legends name the mouse IgG1 form; also called mAb Foxp3-#32; mAb-Foxp3-#32) VH: EVQLVESGGGVVQPGRSLRLSCAASGFTFNNHAMHWVRQAPGKGLEWVAVISFDGDDKFYADSVKGRFTISRDNSRNTLFLQMNNLRPEDTAVYYCSRDPYHFASGSYSYFDYWGQGTLVTVSS VL: QSVLTQPPSVSVAPGKTARITCGGNNIGSKSVHWYQQKPGQAPVLVIYYDSDRPSGIPERFSGSNSGNTATLTISRVEAGDEADYYCQVWDSSSDHYVFGTGTKVTVL |
